Experimental data published in patent publication US10077436B2, “Beta-glucosidase enzymes for increased biomass saccharification” (Edeniq, Inc., priority 2013, dated 2018).
Numbering of substitutions follows the chain as printed. Numbers in names are those of the source.

B1: yEdQ885-BG: improved (modified) in-house beta-glucosidase mutant secreted by yeast strain yEdQ885 (protein)
chain: MRFTLIEAVALTAVSLASADELAYSPPYYPSPWANGQGDWAQAYQRAVDIVSQMTLDEKVNLTTGTGWELELCVGQTGGVPRLGVPGMCLQDSPLGVRDSDYNSAFPAGMNVAATWDKNLAYLRGKAMGQEFSDKGADIQLGPAAGPLGRSPDGGRNWEGFSPDPALSGVLFAETIKGIQDAGVVATAKHYIAYEQEHFRQAPEAQGFGFNISESGSANLDDKTMHELYLWPFADAIRAGAGAVMCSYNQINNSYGCQNSYTLNKLLKAELGFQGFVMSDWAAHHAGVSGALAGLDMSMPGDVDYDSGTSYWGTNLTISVLNGTVPQWRVDDMAVRIMAAYYKVGRDRLWTPPNFSSWTRDECGYKYYYVSEGPFEKVNQYVNVQRNHSELIRRIGADSTVLLKNDGALPLTGKERLVALIGEDAGSNPYGANGCSDRGCDNGTLAMGWGSGTANFPYLVTPEQAISNEVLKHKNGVFTATDNWAIDQIEALAKTASVSLVFVNADSGEGYINVDGNLGDRRNLTLWRNGDNVIKAAASNCNNTIVVIHSVGPVLVNEWYDNPNVTAILWGGLPGQESGNSLADVLYGRVNPGAKSPFTWGKTREAYQDFLVTEPNNGNGAPQEDFVEGVFIDYRGFDKRNETPIYEFGYGLSYTTFNYSNLEVQVLSAPAYEPASGETEAAPTFGEVGNASDYLYPSGLQRITKFIYPWLNGTDLEASSGDASYGQDSSDYLPEGATDGSAQPILPAGGGPGGNPRLYDELIRVSVTIKNTGKVAGDEVPQLYVSLGGPNEPKIVLRQFERITLQPSEETKWSTTLTRRDLANWNVEKQDWEITSYPKMVFVGSSSRKLPLRASLPTVH
modifications: synthetic mutant beta-glucosidase (BG), BG acid/base mutant #8, yEdQ885 -> Y363C/Y375F/A446A/V498V/G510G/Y560Y/Y610F
B2: yEdQ745-BG: wild type Aspergillus niger beta-glucosidase (Accession CAB75696.1, SEQ ID NO:2) secreted by yeast strain yEdQ745 (protein)
chain: B1 chain with C363Y, F375Y, F610Y
modifications: Aspergillus niger; wild type beta-glucosidase (BG)

Experiments:
Format in all cases: biochemical
[1] = BG (cellobiase) activity assay / kinetics using cellobiose substrate, HPLC
Procedure: BG activity assay using cellobiose is the other standard assay to measure BG or cellobiase activity, which utilizes hydrolysis of cellobiose by cellobiase into two molecules of glucose, the last step of enzymatic hydrolysis of cellulose. One cellobiase unit (commonly termed as CBU) is defined as the amount of enzyme that converts […] of cellobiose or produces 2 μmol of glucose per min. Briefly, to determine BG activity, 25 μL of diluted enzyme in 50 mM citrate buffer (pH 4.8) equilibrated to 50° C. was mixed with 25 μL cellobiose (or cellobiose/glucose mixture for the kinetic study) to start the reaction. The mixture was incubated at 50° C. for 10 min, and the reaction was terminated by incubating the mixture at 99° C. for 5 min. Different methods are available to measure the glucose produced in the assays. For the kinetic study, HPLC was used. […]
The specific activity used here was determined by the initial velocity approach that is required by implementing Michaelis-Menten model (Copeland, 2000). The specific activity was determined by measuring consumption of cellobiose in the first 10 min of reaction and was expressed as μmol min^−1 mg^−1, where mg^−1 means per mg of total protein. The relative activity was determined based on the maximum activity obtained in the absence of initial glucose inhibition.

[2] = BG activity assay / kinetics using pNPG substrate; conditions: all conditions except initial glucose 36 g/L
Procedure: BG activity assay using pNPG is one of the two commonly used standard assays to measure BG activity, which utilizes hydrolysis of p-nitrophenyl-β-D-glucopyranoside (pNPG) by BG into a yellow colored product, p-nitrophenol (pNP), that has a strong absorbance at 405 nm. One pNPG unit is defined as the amount of enzyme that produces 1 μmol of pNP per min. Briefly, to determine BG activity, 25 μL of diluted enzyme in 200 mM sodium acetate buffer (pH 5.0) was mixed with 25 μL of the same buffer and 25 μL of RO water (or glucose solution for the kinetic study) and the mixture was preincubated at 50° C. for 5 min. […] The reaction was then terminated by adding 100 μL of 0.25 M sodium carbonate, and the amount of pNP produced was determined by measuring absorbance at 405 nm using a predetermined calibration curve. […]
To determine the kinetic properties, a competitive inhibition mechanism was hypothesized as proposed in the literature (Chauve et al, 2010; Krogh et al, 2010). […] The turnover number, Kcat, can be calculated by Equation (2), where [Et] is the total amount of enzyme.
Conventionally, linearization methods can be used to determine the kinetic parameters based on Equation (1). […] Thus, Vmax, Km and Ki can be determined simultaneously from this fitting process, and Km/Ki can then be calculated. Kcat can be obtained by Equation (2) and Kcat/Km can be calculated accordingly.

[3] = BG supplementation of Celluclast in 48-hour saccharification of filter paper; conditions: for optimal CBU/FPU ratio (optimal BG dosage): 10% solid loading, 20% Celluclast loading
Procedure: Experimental conditions in this example using filter paper substrate was 10% solid loading and 20% Celluclast loading based on glucan content. Different BG dosage based on CBU:FPU (BG activity/total cellulase activity) was tested.
Enhancement of glucose release (Equation 5) and lift of sugar conversion (Equation 6) was compared among various BGs at the optimal dosage over time in FIG. 8.

[4] = BG supplementation of commercial cellulase preparations in corn stover saccharification; conditions: added to commercial enzyme preparation, 50° C.
Excerpt: In this experiment, 10% CTecII per gram glucan and 0.5% HtecII per mass solids was used as a control level for high saccharification of pretreated biomass. The relatively low enzyme dose of 3% Genencor® Trio per gram glucan was used as a base enzyme level to observe increases in saccharification from supplementation with BG enzymes. Enzyme doses of 0.5%, 1% and 2% of HtecII were used in a parallel set of reactions to likewise observe increases in saccharification from supplementation with concentrated extract from yEdQ745, yeast expressing wild type BG and another set of samples supplemented with commercial BG. • BG were used from two sources: wild type BG (yEdQ745) and commercial BG (Nozyme product SP-188). • Commercial cellulase preparations: Novozymes CtecII, Novozymes HtecII and Genencor® Trio. • Biomass used for the experiment: For each reaction 3 gms from Run 177 corn stover at 10% final solid concentration. • BG addition: 2 mL of wild type BG concentrated from yEdQ745 (11× concentrated) was added to the respective reaction. • Commercial BG: 1 uL/gm of biomass • Buffer: sodium citrate buffer pH5.0 was used for the reaction • Saccharification temperature: 50° C./24 and 48 hours.

Molecule	specific activity towards cellobiose, comparison ([1]; absence of glucose inhibition)	specific activity towards pNPG, comparison [2]	optimal CBU/FPU ratio (optimal BG dosage) [3]	performance in enhancing saccharification, comparison ([3]; optimal BG dosage)	enhancement of sugar release ([3]; optimal BG dosage, up to 48 h)	lift of sugar conversion ([3]; optimal BG dosage, up to 48 h)	specific activity towards cellobiose, comparison ([1]; all conditions tested)	effect of BG supplementation on glucose release / glucan to glucose conversion [4]
B1	higher specific activity towards cellobiose than both yEdQ745-BG (wild type) and S-BG	higher specific activity towards pNPG than both yEdQ745-BG (wild type) and S-BG	2	outperformed the other three BGs	more than 50%	more than 13%	–	–
B2	–	–	1	–	–	–	the lowest	dramatically increased
